According to the supplement of paper PMC12042874:
± gives the uncertainty stated by the source.

Test: amyloid nucleation score (Sup35N fusion, yeast selection) (log enrichment); library NNK3; higher = more nucleation; inactive = no reads after selection
Procedure, shortened: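 Psi-negative yeast expressed Sup35N fused to peptides of 20 random codons. They were induced 24 hours with 100 μM copper sulfate, grown 7 days at 30°C without adenine and uracil, and their plasmid inserts from input and output were Illumina-sequenced. The nucleation score is the DiMSum log enrichment of output over input reads, centred on the mode score of non-aggregating sequences. Sequences with under 100 input reads were excluded.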

Row | Substance | amyloid nucleation score
1 | TRFSVDVRIFWIINYFLWLL | inactive
2 | TRISTG | inactive
3 | TRLLVWSETIAVWVRLQN | inactive
4 | TRMRTCSKRY | inactive
5 | TRNWLDSRKLD | inactive
6 | TRPSTIHFPVWFVGKSCRCD | inactive
7 | TRQNWENNFLLWYGEVMS | inactive
8 | TRSNRRHVRVT | inactive
9 | TRVIRLGGMALSFVFTIISC | inactive
10 | TRVLSTSGFNQRPNCWFSTM | inactive
11 | TRWGCSSSSNFGCFDDKRRL | inactive
12 | TRWLCLDKLHLFLLCGKIAI | inactive
13 | TRYIIMCPILCRSEMVLPVR | inactive
14 | TSCGISSSAGFSVFMSEGAK | 0.692 ± 0.13
15 | TSCLNKKHAVGFSCVFYH | inactive
16 | TSDSMSLNFVTWVNQI | inactive
17 | TSDVEVSRMIVCIWTSFIYQ | 0.142 ± 0.52
18 | TSERLMVSQITAHILGFHEI | inactive
19 | TSETRPIGDA | inactive
20 | TSFSYNLGTISDRCVWILAD | -0.116 ± 0.9
21 | TSILMPASDVLKMQVVPWLS | 0.904 ± 0.16
22 | TSILPRSGANVKQLLLVLFV | inactive
23 | TSIMSKGGGSYLSWNWHGWL | inactive

Row | Substance | amyloid nucleation score
24 | TSPPGRIDMQTSWDMFYADE | inactive
25 | TSRHVLR | -0.187 ± 0.66
26 | TSVCSHSEVCGWSYYTDLLS | inactive
27 | TTCILYPYLWCLMIHMSASN | 0.891 ± 0.16
28 | TTDGFRVRSTLYNYICVWRY | inactive
29 | TTEMWKALACPSHRTTRPCS | inactive
30 | TTIYSEVLFRDHCVWQYPDR | inactive
31 | TTMRSIPRGRRT | inactive
32 | TVASYVNCKRFVLWNYWLFS | inactive
33 | TVDNHGSA | inactive
34 | TVEKTWKTVYIYKDSVTLRN | 1.33 ± 0.12
35 | TVFCLVKFRLEFYVTMPEYC | inactive
36 | TVFDWLMHQMNC | inactive
37 | TVHAYLFCGTAVMTVRSSVV | inactive
38 | TVHNKMPHRLWNCTTLE | inactive
39 | TVHSIDRVVIIHRLMND | 0.235 ± 0.35
40 | TVSCLLKKVSRIVTVCVEWD | inactive
41 | TVSYRTTIWWRSINFNRRAL | inactive
42 | TVTCRVQRHLDLN | inactive
43 | TVVMIFLISYNFF | 1.7 ± 0.1
44 | TVVRNGIKTVYGLVDCVDS | inactive
45 | TVWKGIREYSRS | inactive
46 | TWAWPGRYYQWLQLQLGLNK | inactive

Row | Substance | amyloid nucleation score
47 | TWFYQ | inactive
48 | TWGCYLLISNI | inactive
49 | TWGIG | inactive
50 | TWISITWTWPWKKWVLNLRY | inactive
51 | TWLRSYMLYYVVWFF | inactive
52 | TWNGMWFVLSSL | inactive
53 | TWNVPWE | inactive
54 | TYAIGLHMLGSMGKIPDWEQ | 1.25 ± 0.14
55 | TYAIYVDSGIFLEVHGNLYM | 2.64 ± 0.08
56 | TYCYTVVTASMDAFEG | inactive
57 | TYFDFVLYV | inactive
58 | TYFILSDCQASNIFSPMSDE | 0.478 ± 0.14
59 | TYFMRPSNYHVLSLGAG | inactive
60 | TYGGMSQSNLLRWCCFAWMY | inactive
61 | TYGQLCIKVTGLGHFYRPMG | 0.922 ± 0.18
62 | TYIPFIIYLIGCVLVYVYVL | inactive
63 | TYIRGQRCDIQMETWMTLCS | inactive
64 | TYLALGLSSSMLRESLKWEV | inactive
65 | TYLCGFHLYCC | inactive
66 | TYLIYGGG | inactive
67 | TYQSVDTVLSSVT | inactive
68 | TYSGRIKLFLCWMLILSNGT | inactive
69 | TYSGRSKSILTGSID | inactive

Row | Substance | amyloid nucleation score
70 | TYSRFEISCMCWASYTIK | 0.775 ± 0.22
71 | TYTYCTLNSLTDSRSETILV | inactive
72 | TYVARIVN | inactive
73 | TYVGVYALIF | -1.12 ± 1.5
74 | TYYTGQLNVTEVVFLYISGS | 1.96 ± 0.069
75 | VAALFKGKAVSCGGFSFFN | -0.076 ± 0.54
76 | VALWWTVMYRFFMALTFIMQ | inactive
77 | VAPGDPNMIGHGLHVFTTTL | -0.498 ± 0.83
78 | VAPWKKPLPMKVTSAQFPNR | inactive
79 | VASCMTGWLILDETMSSFKL | -0.746 ± 0.98
80 | VASVIL | inactive
81 | VCCSVSVAWKSWAHT | 1.28 ± 0.13
82 | VCFDSVAMDNHDYPCVTRYM | inactive
83 | VCFGWSNSFSAWT | inactive
84 | VCGLLL | inactive
85 | VCHKCCDRIQSLVGVRGHQE | inactive
86 | VCKLVTYSYLLVREPRSADS | inactive
87 | VCKMSNMFNSFCYYASQFCY | inactive
88 | VCKVCFVERSCVVVVNV | 1.8 ± 0.067
89 | VCQESPSEIGES | inactive
90 | VCRDSVILLDLLGAMCVVYG | inactive
91 | VCRFPRFFWTCYSDVLHCFS | inactive
92 | VCTVQCFEKIEL | inactive

Row | Substance | amyloid nucleation score
93 | VDEYVLWVSYYPWWYRVNTV | inactive
94 | VDFLCNPWVERINGYVWEVV | inactive
95 | VDINRFMEPLSCVRCCDDSC | inactive
96 | VDKWDCLSYSNIVGLMRLDV | inactive
97 | VDLGRWFSSGFVWLGYKDIF | inactive
98 | VDNHAFKAFKHLGSSLMADR | inactive
99 | VDNHPDFFLNLESVLINVDH | inactive
100 | VDSILAMGRGAYVID | inactive
101 | VDSWSRGQVSQLGRSQWADI | 0.68 ± 0.31
102 | VDVERIQFRSICLCLSTFCV | 1.53 ± 0.081
103 | VDVLFC | inactive
104 | VDVQVINLAFETFECCAFIK | 0.82 ± 0.16
105 | VDVYLDYDIAMQPGVYALWR | inactive
106 | VEDKCVWFV | inactive
107 | VEMATKLQVKVIERALNEGD | inactive
108 | VENRYVIINSRVMGD | inactive
109 | VEPRWNRLVGNHVCSFDGNV | inactive
110 | VEPYRVLYRNGR | inactive
111 | VESRRRLRVEVGFSRVDT | 0.077 ± 0.79
112 | VFEDNDLCELINDVILEHHR | inactive
113 | VFFTHATVLSKSYFNLERLV | 0.426 ± 0.33
114 | VFHWSKLSFVEYHGKCGRSS | inactive
115 | VFIKLPVRSS | -0.192 ± 0.96

Row | Substance | amyloid nucleation score
116 | VFIPVASVIKWGSFKP | 0.65 ± 0.21
117 | VFKFALFTGTLLWLDHCVVS | 1.51 ± 0.14
118 | VFLSAVAGDYIV | inactive
119 | VFLSIMSSFEWALYLL | inactive
120 | VFRAGILESWHRWEGLGVVL | inactive
121 | VFRAGWPVWALDYELYSVRA | inactive
122 | VFSNSGAETVLGLSKGWSDV | -0.542 ± 0.96
123 | VFTNGRSYISRMISYYKYCR | inactive
124 | VFTYCYVFHQVVSLRQARLR | inactive
125 | VFVMPDDNVC | inactive
126 | VGAKRFPYVYWAYGSYVFAD | inactive
127 | VGCLGGRSTSSRWSSLRLLV | inactive
128 | VGFCNGIGVVMGRPAKCSWR | -0.06 ± 1.1
129 | VGFKSCS | inactive
130 | VGFPESPFDSLCAMCALQWV | inactive
131 | VGIIVFLIAFHYYKRSMYWD | inactive
132 | VGLIRCLVDVKLI | inactive
133 | VGLNQSLNRWPTSSSQHMGG | inactive
134 | VGNFLTLSVWDNSGRRIGEE | 0.705 ± 0.19
135 | VGNFTWICKI | 2.48 ± 0.056
136 | VGNNWS | inactive
137 | VGQTCFTIMMVV | inactive
138 | VGRHDNGVSDFAMTSSWVFF | inactive

Row | Substance | amyloid nucleation score
139 | VGRNECARRMVLRKWWLYLV | inactive
140 | VGTDDVIICILSVKFPLIRP | inactive
141 | VGVSISLSRARWGQIAMEET | 1.05 ± 0.2
142 | VHGKWIDRRYNVISRPLGGG | inactive
143 | VHLSRWYVN | inactive
144 | VHVYFRLADL | 1.3 ± 0.14
145 | VHYGNGLRWLGSLVYMGGCI | inactive
146 | VICFAARALVYC | inactive
147 | VICIKEEEG | inactive
148 | VIDEYQSVICGYLIRGWHAS | 1.79 ± 0.088
149 | VIDVFSRDLSMLIFSFGHMK | 1.12 ± 0.089
150 | VIGVCFSKFWWNTHDTRSDS | 0.665 ± 0.23
151 | VIKTLVSWTYISCRLN | inactive
152 | VIKTTNNQ | 1.09 ± 0.11
153 | VILATAYLASNLYPVCSLIS | inactive
154 | VILVFIFRYLHTPSGSSGAR | inactive
155 | VIMYHMKFDNEIWVMHLLRN | inactive
156 | VIRNYTIEIMWVWDQKADVQ | inactive
157 | VITGLIMMLNCIGFVFRGLA | inactive
158 | VITIAIELLGVLFVCIGTIV | inactive
159 | VIVKKLY | inactive
